From patent US9011842

System: T1, 33-mer peptide fragment of α-gliadin, LQLQPFPQPQLPYPQPQLPYPQPQLPYPQPQPF (SEQ ID NO:1)
T1 sequence: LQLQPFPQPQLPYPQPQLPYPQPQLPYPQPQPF

Substance: Aorsin A
- degradation of the 33-mer peptide (ELISA of intact 33-mer), 240 min, pH 4.0: Incubation with either Aorsin A or B for about 240 minutes resulted in complete degradation of the 33-mer peptide
- hydrolysis of the 33-mer peptide (HPLC-MS), citrate buffer pH 4.0: When incubated with the 33-mer peptide in acidic conditions (pH≈4.0), Aorsin A hydrolyzed the 33-mer

Substance: trypsin
- digestion of the 33-mer peptide (HPLC-MS), in vitro gastrointestinal model, digestive enzymes only: The digestive enzymes only (pepsin, trypsin, and chymotrypsin) failed to digest the 33-mer peptide

Substance: pepsin
- digestion of the 33-mer peptide (HPLC-MS), in vitro gastrointestinal model, digestive enzymes only: The digestive enzymes only (pepsin, trypsin, and chymotrypsin) failed to digest the 33-mer peptide
- hydrolysis of the 33-mer peptide (HPLC-MS), 15 hours, SGF pH 2.0: At gastric conditions (pH≈2.0), pepsin did not hydrolyze most of the 33-mer peptide

Substance: Aspergillus niger prolyl endopeptidase
- hydrolysis of the 33-mer peptide (HPLC-MS and ELISA), pH 5.0: CPY, MX-PEP, and AN-PEP hydrolyze the 33-mer peptide. AN-PEP appears to have the strongest activity against the 33-mer peptide, followed by CPY and then MX-PEP

Substance: Neutral protease I
- degradation of the 33-mer peptide (ELISA of intact 33-mer), 0.1 mg/ml enzyme, SIF pH 6.8: NP I and NP II each exhibited a limited ability to degrade the 33-mer peptide
- percent of the 33-mer peptide degraded (ELISA), 60 min, SIF pH 6.8: NP I alone degraded about 40% of the 33-mer peptide

Substance: Aorsin B
- degradation of the 33-mer peptide (ELISA of intact 33-mer), 240 min, pH 4.0: Incubation with either Aorsin A or B for about 240 minutes resulted in complete degradation of the 33-mer peptide
- hydrolysis of the 33-mer peptide (HPLC-MS), citrate buffer pH 4.0: when incubated with the 33-mer peptide in acidic conditions (pH≈4.0), Aorsin B hydrolyzed the 33-mer

Substance: chymotrypsin
- digestion of the 33-mer peptide (HPLC-MS), in vitro gastrointestinal model, digestive enzymes only: The digestive enzymes only (pepsin, trypsin, and chymotrypsin) failed to digest the 33-mer peptide

Substance: Myxococcus xanthus prolyl endopeptidase
- hydrolysis of the 33-mer peptide (HPLC-MS and ELISA), SIF pH 6.8: CPY, MX-PEP, and AN-PEP hydrolyze the 33-mer peptide. AN-PEP appears to have the strongest activity against the 33-mer peptide, followed by CPY and then MX-PEP
- hydrolysis of the 33-mer peptide (HPLC-MS), 4 hours, buffer pH 4.0 to 7.0: MX-PEP did not hydrolyze the 33-mer peptide at an acidic pH
